Earlier results in patent publication US5189019A, “Antistasin derived anticoagulant protein” (Merck & Co., Inc., priority 1990, dated 1993).

Target: Factor Xa (Homo sapiens, UniProt P00742)
Conditions: Tuszynski et al. 1987; Nutt et al. 1988

Chain of Factor Xa (P00742 235-488 limits assumed): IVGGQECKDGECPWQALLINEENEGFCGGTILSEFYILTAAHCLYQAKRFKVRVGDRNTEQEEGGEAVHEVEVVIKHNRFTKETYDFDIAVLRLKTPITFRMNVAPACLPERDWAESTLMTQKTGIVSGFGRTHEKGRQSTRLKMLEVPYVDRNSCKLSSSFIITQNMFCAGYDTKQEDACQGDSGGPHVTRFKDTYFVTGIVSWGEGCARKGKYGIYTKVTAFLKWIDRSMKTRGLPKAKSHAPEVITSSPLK
Chain of Factor Xa (P00742 41-179 partner limits assumed): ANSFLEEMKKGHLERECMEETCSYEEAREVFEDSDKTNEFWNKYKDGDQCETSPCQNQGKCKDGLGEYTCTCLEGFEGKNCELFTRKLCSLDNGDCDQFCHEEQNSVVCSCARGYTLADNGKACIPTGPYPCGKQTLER

B1: Antistasin: 15 kDa cysteine rich protein found in the salivary gland of the Mexican leech, Haementeria officinalis (protein, UniProt P15358 18-136, looked up)
Antistasin: QGPFGPGCEEAGCPEGSACNIITDRCTCSGVRCRMHCPHGFQRSRYGCEFCKCRLEPMKATCDISECPEGMMCSRLTNKCDCKIDINCRKTCPNGLKRDKLGCEYCECRPKRKLIPRLS
inhibition of Factor Xa in the human blood coagulation cascade: potent inhibitor
